Assay results as given in US20190300620A1.

Molecular target: CD46 on target cells (LNCAP-C4-B2 and other prostate cancer cell lines) (UniProt P15529)
Assay: cell-based or functional assay

Sequence of UniProt P15529 (P15529 35-392 limits assumed): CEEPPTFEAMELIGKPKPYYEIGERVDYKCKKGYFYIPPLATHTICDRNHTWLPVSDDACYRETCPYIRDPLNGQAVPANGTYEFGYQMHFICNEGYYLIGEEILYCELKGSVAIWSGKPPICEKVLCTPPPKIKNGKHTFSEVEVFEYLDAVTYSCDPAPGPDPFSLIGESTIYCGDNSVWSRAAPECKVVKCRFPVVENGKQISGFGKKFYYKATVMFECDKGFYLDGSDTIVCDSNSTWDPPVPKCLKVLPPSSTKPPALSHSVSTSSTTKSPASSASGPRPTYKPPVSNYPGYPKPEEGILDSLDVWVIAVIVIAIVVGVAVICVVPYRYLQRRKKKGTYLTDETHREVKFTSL

“anti-CD46 CAR (YS5FL-scFv in a second generation lentivirus CAR containing CD28 and CD3zeta), on transduced human T cells” gave a killing rate of LNCAP-C4-B2 target cells (real time cytotoxicity assay, impedance, effector:target 10:1) greater than 99%.
